Measurements taken from patent publication US20050171017A1.

What was measured:
[1] = target: thyroid-stimulating hormone (TSH) receptor (human) (UniProt P16473); test: flow cytometry, 10 ug/ml TSH-biotin + SA-PE on U937 human monocyte line, all live cells; SA-PE alone 4.88, unstained 4.49; * = credible positive shift
[2] = target: thyroid-stimulating hormone (TSH) receptor (human) (UniProt P16473); test: flow cytometry, 10 ug/ml TSH-biotin + SA-PE on human PBMC donor 2, myeloid gate; SA-PE alone 5.92, unstained 4.33; * = credible positive shift
[3] = target: thyroid-stimulating hormone (TSH) receptor (human) (UniProt P16473); test: flow cytometry, 10 ug/ml TSH-biotin + SA-PE on human PBMC donor 1, lymphoid gate; SA-PE alone 2.50, unstained 2.13; no * (no credible shift)
[4] = target: thyroid-stimulating hormone (TSH) receptor (human) (UniProt P16473); test: flow cytometry, 10 ug/ml TSH-biotin + SA-PE on human PBMC donor 2, lymphoid gate; SA-PE alone 3.92, unstained 3.19; no * (no credible shift)
[5] = target: thyroid-stimulating hormone (TSH) receptor (human) (UniProt P16473); test: flow cytometry, 10 ug/ml TSH-biotin + SA-PE on human PBMC donor 1, myeloid gate; SA-PE alone 4.44, unstained 3.43; * = credible positive shift
[6] = target: thyroid-stimulating hormone (TSH) receptor (human) (UniProt P16473); test: cell-based or functional assay

Chain of thyroid-stimulating hormone (TSH) receptor (human) (P16473 21-764): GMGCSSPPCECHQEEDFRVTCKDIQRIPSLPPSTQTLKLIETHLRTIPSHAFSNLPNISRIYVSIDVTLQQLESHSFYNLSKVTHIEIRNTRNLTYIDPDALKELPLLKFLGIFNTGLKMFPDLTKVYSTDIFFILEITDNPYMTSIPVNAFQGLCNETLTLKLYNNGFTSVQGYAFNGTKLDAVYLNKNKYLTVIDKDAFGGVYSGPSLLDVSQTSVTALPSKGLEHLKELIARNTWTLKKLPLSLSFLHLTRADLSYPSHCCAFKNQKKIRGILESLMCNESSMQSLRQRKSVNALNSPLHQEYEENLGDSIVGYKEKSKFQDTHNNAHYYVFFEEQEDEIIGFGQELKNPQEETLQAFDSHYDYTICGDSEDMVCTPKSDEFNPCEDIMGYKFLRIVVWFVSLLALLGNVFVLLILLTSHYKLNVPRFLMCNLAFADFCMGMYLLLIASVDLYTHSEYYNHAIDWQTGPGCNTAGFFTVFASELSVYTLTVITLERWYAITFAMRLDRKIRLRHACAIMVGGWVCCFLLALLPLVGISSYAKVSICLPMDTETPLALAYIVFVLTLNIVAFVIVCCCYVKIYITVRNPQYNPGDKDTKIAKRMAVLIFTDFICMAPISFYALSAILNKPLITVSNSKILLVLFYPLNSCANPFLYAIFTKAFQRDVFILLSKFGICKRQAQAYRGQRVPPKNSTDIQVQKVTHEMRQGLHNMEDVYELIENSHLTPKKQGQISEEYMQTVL

Row | Substance | FL-2 MFI [1] [MFI] | FL-2 MFI [2] [MFI] | FL-2 MFI [3] [MFI] | FL-2 MFI [4] [MFI] | FL-2 MFI [5] [MFI] | luciferase induction (CRE-luciferase reporter, NCI-H295R human adrenal cortex cells) [6] [fold]
1 | TSH-biotin (from UniProt P01215 25-116; P01222 21-132) (ligand) | 6.34 | 7.26 | 2.63 | 4.23 | 7.78 | –
2 | Thyroid stimulating hormone (TSH), purified TSH heterodimer protein (from UniProt P01215 25-116; P01222 21-132) (ligand) | – | – | – | – | – | 15 to 25
